Experimental data: US20030203464

Molecular target: Rac1 (UniProt P63000)

85 kD Tiam-1
GEF activity (32P-GTP bound to the GTPase, filter assay), with ascorbyl stearate: ascorbyl stearate (AS) stimulated the rate of Tiam-1-mediated nucleotide exchange on Rac 1 | GEF activity (32P-GTP bound to the GTPase, filter assay), without lipid: this truncation alone, at various concentrations, exhibited no GEF activity towards Rac 1

66 kD Tiam-1
GEF activity (32P-GTP bound to the GTPase, filter assay), with ascorbyl stearate: Other truncations of Tiam-1, all containing the DH and PH domains (FIG. 3), also exhibited AS stimulated GEF activity on Rac 1

135 kD Tiam-1
GEF activity (32P-GTP bound to the GTPase, filter assay), with and without ascorbyl stearate: shows weak GEF activity towards Rac in the absence of AS, but is still greatly stimulated by AS

106 kD Tiam-1
GEF activity (32P-GTP bound to the GTPase, filter assay), with ascorbyl stearate: Other truncations of Tiam-1, all containing the DH and PH domains (FIG. 3), also exhibited AS stimulated GEF activity on Rac 1
